The results in this text go back to publication PMC12148588 (eBioMedicine, 2025).

The test concerns the target T1, SARS-CoV-2 RBD of the VOC Delta (Acro Biosystems SPD-C82Ed-25) (SARS-CoV-2, VOC Delta (B.1.617.2), strain).
T1 construct: source: bought: Acro Biosystems
Briefly: SPR; Biacore 8K+, […]; 10 mM HEPES pH 7.4, 150 mM NaCl, 3 mM EDTA, 0.05% Tween 20; […]. The following applies: both partners purified. A general note: SPR reads the build-up and loss of mass on a sensor chip optically.

B1: MB025_A09Lgl (antibody, V domains shown)
VH: EVQLVESGGGLVQPGGSLRLSCAASGFTVSSNYMSWVRQAPGKGLEWVSVIYSGGSTYYADSVKGRFTISRHNSKNTLYLQMNSLRAEDTAVYYCARGVDYRTNRTEGGAFDIWGQGTMVTVSS
VL: QSALTQPASVSGSPGQSITISCTGTSSDVGSYNLVSWYQQHPGKAPKLMIYEGSKRPSGVSNRFSGSKSGNTASLTISGLQAEDEADYYCCSYAGSSTWMFGGGTKLTVL
For B1, the affinity, expressed as Kd, was 731 nM.
